Test results reported in US20210179724A1.

Columns and labels:
[1] = molecular target: adenosine A2A receptor (Homo sapiens (Human)) (UniProt P29274); assay: flow cytometry, HEK293-A2a cells; Parent Singlets in the same table: 230
[2] = molecular target: adenosine A2A receptor (Homo sapiens (Human)) (UniProt P29274); assay: flow cytometry, HEK293-A2a cells; Parent Singlets in the same table: 230; same picture as FIG. 16O
[3] = molecular target: adenosine A2A receptor (Homo sapiens (Human)) (UniProt P29274); assay: cell-based or functional assay

Chain of adenosine A2A receptor (Homo sapiens (Human)) (P29274 whole entry): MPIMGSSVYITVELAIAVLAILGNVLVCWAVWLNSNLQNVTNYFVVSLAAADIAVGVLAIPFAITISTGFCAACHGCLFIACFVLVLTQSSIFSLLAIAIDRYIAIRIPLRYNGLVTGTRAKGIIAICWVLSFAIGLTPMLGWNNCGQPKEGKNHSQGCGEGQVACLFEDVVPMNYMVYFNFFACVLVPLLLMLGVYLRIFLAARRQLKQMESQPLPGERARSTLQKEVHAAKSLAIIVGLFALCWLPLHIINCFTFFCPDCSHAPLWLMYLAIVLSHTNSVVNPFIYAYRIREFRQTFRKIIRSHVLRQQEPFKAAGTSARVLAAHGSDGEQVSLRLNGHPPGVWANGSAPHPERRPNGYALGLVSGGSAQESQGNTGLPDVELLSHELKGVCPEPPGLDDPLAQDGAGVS

Row | Median : RL1-H (A2a Singlets) [1] | Median : RL1-H (A2a Singlets) [2] | Absolute IC50, A2A cAMP antagonist titration (as in Example 16: titrated IgG, fixed NECA) [3] | Absolute IC50, LANCE allosteric cAMP assay, titrated IgG then fixed NECA concentration [3] | Absolute IC50, cAMP allosteric A2A assay (as in Example 15: fixed IgG, NECA titration) [3] | Absolute IC50 of NECA titration in cAMP assay, cells pre-incubated with fixed 100 nM IgG [3] | Substance
1 | 7500 | 7500 | – | – | – | – | Human Adenosine A2aR monoclonal (MAB9497) (antibody)
2 | – | – | 9.43 | 9.43 | 0.513 | 2.25 | R&D control antibody
